Biological target: BG505-gp120
Experiment: SPR

B1: 4025 (antibody, V domains shown)
VH: EVQLVQSGAEVKKPGESLKISCKASGYSFSSYWIAWVRQMPGKGLEWMGFIYPADSDTRYSPSFQGQGTISADKSISTAYLQWSSLKASDTAMYYCAILGFWGANRGGGGMDVWGQGTTVIVSS
VL: SYELTQPPSVSVSPGQTARITCSGDALPEKYAYWYQQKSGQAPVLIIYEDSKRPSGIPERFSGSRSGTMATLTISGAQVDDEADYYCYSTNSGGTFFVFGTGTKVTVLG
  Kd: 75 nM

— patent US20190085033A1 (published 2019)
